Data on six molecules can be found in patent publication US12269859B2, “Synthetic immune receptors and methods of use thereof” (Angeles Therapeutics, Inc., priority 2016, dated 2025).

This test has as its system target antigen-expressing cell line. The test can be described thus: Jurkat NFAT-GFP assay, coculture with target cell lines expressing the respective target antigen (summary Table 10A). The test is classed as cell-based, human. On the set-up: key: The signs +/−, +, 2+ etc. after the name of the cell lines indicate the relative degree of positivity on the Jurkat-NFAT-GFP assay as measured by the % GFP positive cells; +: relative degree of positivity on the Jurkat-NFAT-GFP assay as measured by the % GFP positive cells; 2+: relative degree of positivity on the Jurkat-NFAT-GFP assay as measured by the % GFP positive cells. The procedure, abridged: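 Jurkat cells carrying an NFAT-site IL-2 promoter driving GFP were lentivirally transduced with SIRs, puromycin-selected, then cocultured with antigen-expressing target cells at E:T about 1:2 for about 4–18 hours. GFP induction was read by flow cytometry as % GFP-positive cells versus parental Jurkat-NFAT-GFP.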

The mark [1] stands for this setting: coculture with TF228.1.1.6 cells.

B1: 091616-Y01 (protein)
chain: MALPVTALLLPLALLLHAARPDIQMTQSPSSLSASVGDTVTITCQANGYLNWYQQRRGKAPKLLIYDGSKLERGVPSRFSGRRWGQEYNLTINNLQPEDIATYFCQVYEFVVPGTRLDLKRTVAAPLEEQKLISEEDLGSGEDLKNVFPPEVAVFEPSKAEIAHTQKATLVCLATGFYPDHVELSWWVNGKEVHSGVCTDPQPLKEQPALNDSRYCLSSRLRVSATFWQNPRNHFRCQVQFYGLSENDEWTQDRAKPVTQIVSAEAWGRADCGITSASYHQGVLSATILYEILLGKATLYAVLVSALVLMAMVKRKDSRGRAKRSGSGATNFSLLKQAGDVEENPGPTSMDWIWRILFLVGAATGAHSFEQVQLLQSGAAVTKPGASVRVSCEASGYNIRDYFIHWWRQAPGQGLQWVGWINPKTGQPNNPRQFQGRVSLTRHASWDFDTFSFYMDLKALRSDDTAVYFCARQRSDYWDFDVWGSGTQVTVSSASTKGPTREQKLISEEDGSGIQNPDPAVYQLRDSKSSDKSVCLFTDFDSQTNVSQSKDSDVYITDKCVLDMRSMDFKSNSAVAWSNKSDFACANAFNNSIIPEDTFFPSSDVPCDVKLVEKSFETDTNLNFQNLSVIGFRILLLKVAGFNLLMTLRLWSSRAKRSGSGVKQTLNFDLLKLAGDVESNPGPSRGHMTEYKPTVRLATRDDVPRAVRTLAAAFADYPATRHTVDPDRHIERVTELQELFLTRVGLDIGKVWVADDGAAVAVWTTPESVEAGAVFAEIGPRMAELSGSRLAAQQQMEGLLAPHRPKEPAWFLATVGVSPDHQGKGLGSAVVLPGVEAAERAGVPAFLETSAPRNLPFYERLGFTVTADVEVPEGPRTWCMTRKPGA
modifications: Synthetic Immune Receptor (SIR)
For the molecule B1, the “NFAT-GFP ASSAY Positive Cell lines” value (coculture with HL2-3 cells) is on record as “HL2-3 (+/−)”.

B2: 121416-H05 (protein)
chain: MALPVTALLLPLALLLHAARPLEGKPIPNPLLGLDSTGSGEDLKNVFPPEVAVFEPSKAEIAHTQKATLVCLATGFYPDHVELSWWVNGKEVHSGVCTDPQPLKEQPALNDSRYCLSSRLRVSATFWQNPRNHFRCQVQFYGLSENDEWTQDRAKPVTQIVSAEAWGRADCGITSASYHQGVLSATILYEILLGKATLYAVLVSALVLMAMVKRKDSRGRAKRSGSGATNFSLLKQAGDVEENPGPTSMALPVTALLLPLALLLHAARPDYIHVTQSPSSLSVSIGDRVTINCQTSQGVGSDLHWYQHKPGRAPKLLIHHASSVEDGVPSRFSGTGFHTSFNLTINDLQADDIGTYYCQVLQSFGRGSRLDTKGGGGSGGGGSGGGGSRAHLVQSGTAMKKPGASVRVSCQTSGYTFTAHILFWFRQAPGRGLEWVGWIKPQYGAVNFGGGFRDRVTLTRDVYREIAYMDIRGLKPDDTAVYYCARDRSYGDSSWALDAWGQGTTVVVSATREQKLISEEDGSGIQNPDPAVYQLRDSKSSDKSVCLFTDFDSQTNVSQSKDSDVYITDKCVLDMRSMDFKSNSAVAWSNKSDFACANAFNNSIIPEDTFFPSSDVPCDVKLVEKSFETDTNLNFQNLSVIGFRILLLKVAGFNLLMTLRLWSSRAKRSGSGVKQTLNFDLLKLAGDVESNPGPSRGHMTEYKPTVRLATRDDVPRAVRTLAAAFADYPATRHTVDPDRHIERVTELQELFLTRVGLDIGKVWVADDGAAVAVWTTPESVEAGAVFAEIGPRMAELSGSRLAAQQQMEGLLAPHRPKEPAWFLATVGVSPDHQGKGLGSAVVLPGVEAAERAGVPAFLETSAPRNLPFYERLGFTVTADVEVPEGPRTWCMTRKPGA
modifications: Polynucleotide encoding a Synthetic Immune Receptor (SIR)
As to B2, the “NFAT-GFP ASSAY Positive Cell lines” value is, setting by setting: (coculture with HL2-3 cells) “HL2-3 (+/−),”; under setting [1], “TF228.1.1.6 (+/−)”.

B3: 060717-L04 (protein)
chain: MALPVTALLLPLALLLHAARPQSVVTQPASVSGSPGQSITISCTGTSSDVGGYNYVSWYQQHPGKAPKLMIYDVSKRPSGVSNRFSGSKSGNTASLTISGLQAEDEADYYCSSYTSSSTLVFGGGTKLTVLGLEIQNPDPAVYQLRDSKSSDKSVCLFTDFDSQTNVSQSKDSDVYITDKCVLDMRSMDFKSNSAVAWSNKSDFACANAFNNSIIPEDTFFPSSDVPCDVKLVEKSFETDTNLNFQNLSVIGFRILLLKVAGFNLLMTLRLWSSRAKRSGSGVKQTLNFDLLKLAGDVESNPGPTSMDWIWRILFLVGAATGAHSFEEVQLVESGGAFVQPGGSLRLSCAASGFTFSSYAMTWVRQAPGKGLEWVSTISGRGRSTFYADSVKGRFTISRDNSKNTLYLQMNSLRAEDTAVYYCARYYHAGAFDLWGQGTLVTVSSTREDLKNVFPPEVAVFEPSKAEIAHTQKATLVCLATGFYPDHVELSWWVNGKEVHSGVCTDPQPLKEQPALNDSRYCLSSRLRVSATFWQNPRNHFRCQVQFYGLSENDEWTQDRAKPVTQIVSAEAWGRADCGITSASYHQGVLSATILYEILLGKATLYAVLVSALVLMAMVKRKDSRGRAKRSGSGATNFSLLKQAGDVEENPGPSRGHMTEYKPTVRLATRDDVPRAVRTLAAAFADYPATRHTVDPDRHIERVTELQELFLTRVGLDIGKVWVADDGAAVAVWTTPESVEAGAVFAEIGPRMAELSGSRLAAQQQMEGLLAPHRPKEPAWFLATVGVSPDHQGKGLGSAVVLPGVEAAERAGVPAFLETSAPRNLPFYERLGFTVTADVEVPEGPRTWCMTRKPGA
As for B3, the “NFAT-GFP ASSAY Positive Cell lines” value is, setting by setting: (coculture with L363 cells) 2+; (coculture with U266 cells) “+”.

B4: 040716-B03 (protein)
chain: MALPVTALLLPLALLLHAARPLEGKPIPNPLLGLDSTGSGEDLKNVFPPEVAVFEPSKAEIAHTQKATLVCLATGFYPDHVELSWWVNGKEVHSGVCTDPQPLKEQPALNDSRYCLSSRLRVSATFWQNPRNHFRCQVQFYGLSENDEWTQDRAKPVTQIVSAEAWGRADCGITSASYHQGVLSATILYEILLGKATLYAVLVSALVLMAMVKRKDSRGRAKRSGSGATNFSLLKQAGDVEENPGPTSMALPVTALLLPLALLLHAARPDEFDVQLVESGGGLVQPGGSLRLSCAASGSIGGLNAMAWYRQAPGKERELVAGIFGVGSTRYADSVKGRFTISRDNSKNTVYLQMNSLRPEDTAVYYCRMSSVTRGSSDYWGQGTLVTVSSLEGGGGSGGGGSGGGGSGSGGSGSGGSGSGGSGSGGSFEVQLVESGGSLVQPGGSLRLSCAASGFTFDDYAMSWVRQVPGKGLEWVSSINWSGTHTDYADSVKGRFTISRNNANNTLYLQMNSLKSEDTAVYYCAKNWRDAGTTWFEKSGSAGQGTQVTVSSTREQKLISEEDGSGIQNPDPAVYQLRDSKSSDKSVCLFTDFDSQTNVSQSKDSDVYITDKCVLDMRSMDFKSNSAVAWSNKSDFACANAFNNSIIPEDTFFPSSDVPCDVKLVEKSFETDTNLNFQNLSVIGFRILLLKVAGFNLLMTLRLWSSRAKRSGSGVKQTLNFDLLKLAGDVESNPGPSRGHMTEYKPTVRLATRDDVPRAVRTLAAAFADYPATRHTVDPDRHIERVTELQELFLTRVGLDIGKVWVADDGAAVAVWTTPESVEAGAVFAEIGPRMAELSGSRLAAQQQMEGLLAPHRPKEPAWFLATVGVSPDHQGKGLGSAVVLPGVEAAERAGVPAFLETSAPRNLPFYERLGFTVTADVEVPEGPRTWCMTRKPGA
modifications: Synthetic Immune Receptor (SIR)
Turning to B4, the “NFAT-GFP ASSAY Positive Cell lines” value (coculture with A431 cells) is on record as “(+), A431 (+)”; the “NFAT-GFP ASSAY Positive Cell lines” value (coculture with MCF7 cells) was “MCF7 (+/−), SKBR3”; the “NFAT-GFP ASSAY Positive Cell lines” value (coculture with SKBR3 cells) is “(+), A431 (+)”.

B5: 040716-H06 (protein)
chain: MALPVTALLLPLALLLHAARPDEFDVQLVESGGGLVQPGGSLRLSCAASGSIGGLNAMAWYRQAPGKERELVAGIFGVGSTRYADSVKGRFTISRDNSKNTVYLQMNSLRPEDTAVYYCRMSSVTRGSSDYWGQGTLVTVSSLEGGGGSGGGGSGGGGSGSGGSGSGGSGSGGSGSGGSFEVQLVESGGSLVQPGGSLRLSCAASGFTFDDYAMSWVRQVPGKGLEWVSSINWSGTHTDYADSVKGRFTISRNNANNTLYLQMNSLKSEDTAVYYCAKNWRDAGTTWFEKSGSAGQGTQVTVSSTREQKLISEEDGSGIQNPDPAVYQLRDSKSSDKSVCLFTDFDSQTNVSQSKDSDVYITDKCVLDMRSMDFKSNSAVAWSNKSDFACANAFNNSIIPEDTFFPSSDVPCDVKLVEKSFETDTNLNFQNLSVIGFRILLLKVAGFNLLMTLRLWSSRAKRSGSGVKQTLNFDLLKLAGDVESNPGPSRGHMTEYKPTVRLATRDDVPRAVRTLAAAFADYPATRHTVDPDRHIERVTELQELFLTRVGLDIGKVWVADDGAAVAVWTTPESVEAGAVFAEIGPRMAELSGSRLAAQQQMEGLLAPHRPKEPAWFLATVGVSPDHQGKGLGSAVVLPGVEAAERAGVPAFLETSAPRNLPFYERLGFTVTADVEVPEGPRTWCMTRKPGA
modifications: Polynucleotide encoding a Synthetic Immune Receptor (SIR)
Turning to B5, the “NFAT-GFP ASSAY Positive Cell lines” value (coculture with MCF7 cells) was “MCF7 (+), SKBR3 (+)” and the “NFAT-GFP ASSAY Positive Cell lines” value (coculture with SKBR3 cells) is “MCF7 (+), SKBR3 (+)”.

B6: 091616-X01 (protein)
chain: MALPVTALLLPLALLLHAARPELVLTQSPGTLSLSAGERATLSCRASQSVSSGSLAWYQQKPGQAPRLLIYGASTRATGIPDRFSGSGSGTDFTLTIGRLEPEDLAVYYCQQYGTSPYTFGQGTKLEILEEQKLISEEDLGSGEDLKNVFPPEVAVFEPSKAEIAHTQKATLVCLATGFYPDHVELSWWVNGKEVHSGVCTDPQPLKEQPALNDSRYCLSSRLRVSATFWQNPRNHFRCQVQFYGLSENDEWTQDRAKPVTQIVSAEAWGRADCGITSASYHQGVLSATILYEILLGKATLYAVLVSALVLMAMVKRKDSRGRAKRSGSGATNFSLLKQAGDVEENPGPTSMDWIWRILFLVGAATGAHSFELEQSGAEVKKPGSSVQVSCKASGGTFSMYGFNWVRQAPGHGLEWMGGIIPIFGTSNYAQKFRGRVTFTADQATSTAYMELTNLRSDDTAVYYCARDFGPDWEDGDSYDGSGRGFFDFWGQGTLVTVSSTREQKLISEEDGSGIQNPDPAVYQLRDSKSSDKSVCLFTDFDSQTNVSQSKDSDVYITDKCVLDMRSMDFKSNSAVAWSNKSDFACANAFNNSIIPEDTFFPSSDVPCDVKLVEKSFETDTNLNFQNLSVIGFRILLLKVAGFNLLMTLRLWSSRAKRSGSGVKQTLNFDLLKLAGDVESNPGPSRGHMTEYKPTVRLATRDDVPRAVRTLAAAFADYPATRHTVDPDRHIERVTELQELFLTRVGLDIGKVWVADDGAAVAVWTTPESVEAGAVFAEIGPRMAELSGSRLAAQQQMEGLLAPHRPKEPAWFLATVGVSPDHQGKGLGSAVVLPGVEAAERAGVPAFLETSAPRNLPFYERLGFTVTADVEVPEGPRTWCMTRKPGA
modifications: Synthetic Immune Receptor (SIR)
As to B6, the “NFAT-GFP ASSAY Positive Cell lines” value (coculture with HL2-3 cells) is on record as “HL2-3 (+/−)” and the “NFAT-GFP ASSAY Positive Cell lines” value under setting [1] is recorded as “TF228.1.1.6 (+),”.
